First the molecules themselves.
B1: Reference antibody 1 (Benchmark 1-175D10) (antibody, V domains shown)
VH: QVQLQQPGAELVRPGASVKLSCKASGYTFTSYWINWVKQRPGQGLEWIGNIYPSDSYTNYNQKFKDKATLTVDKSSSTAYMQLSSPTSEDSAVYYCTRSWRGNSFDYWGQGTTLTVSS
VL: DIVMTQSPSSLTVTAGEKVTMSCKSSQSLLNSGNQKNYLTWYQQKPGQPPKLLIYWASTRESGVPDRFTGSGSGTDFTLTISSVQAEDLAVYYCQNDYSYPFTFGSGTKLEIK
B2: Ab 347 (antibody, V domains shown)
VH: EVQLQQSGPELVKPGASVKMSCKASGYTFTSYLIHWVKQKPGQGLEWIGYINPYNDATYYNEKFKAKATLTSDKSSSTAYMELSSLTSEDTAIYYCTRGDYWSQGTSVTVSS
VL: B1 VL with E61Q, A90T, Q95L, Y100F, F102L, S106A, I112L
notes: Full-length IgG from ExpiCHO
B3: Reference antibody 2 (Benchmark 2-163E12) (antibody, V domains shown)
VH: QVQLQQSGAELARPGASVKLSCKASGYTFTDYYINWVKQRTGQGLEWIGEIYPGSGNTYYNEKFKGKATLTADKSSSTAYMQLSSLTSEDSAVYFCARSYGAFDYWGQGTTLTVSS
VL: B1 VL with F102L, S106A, I112L
B4: Ab 369 (antibody, V domains shown)
VH: DVKLVESGGGLVKPGGSLKLSCAASGFTFTSYTMSWVRQTPEKRLEWVATIIIGGSYTYYPDSVKGRFTISRDNAKNTLYLQMSSLKSEDTAMYYCTRLVKGNAMDYWGQGTSVTVSS
VL: B1 VL with V3L, S22T, T59S, S106A, I112L
notes: Full-length IgG from ExpiCHO
B5: Ab 331 (antibody, V domains shown)
VH: EVQLQQSGPELVKPGASVRMSCKASGYTFTSYIMHWVKQKPGQGPEWMGYINPYNDGTNYNEKFKDKATLTSDKSSSTAYMDLSSLTSEDSAVYYCTRGDYWGQGTSVTVSS
VL: B1 VL with I54F, R60K, E61K, G74R, Q95L, Y100F, F102L, S106A, I112L
notes: Full-length IgG from ExpiCHO
B6: Ab 358 (antibody, V domains shown)
VH: VVQLVESGGDFVQPGGSRKLSCAVSGFTFSSFGMHWVRQAPEKGLEWVAYISSGTTNIYYADTVKGRFTVSRDNPKNSLFLHMTSLRSEDTAMYYCVRSGYYGNSLDYWGQGTPLTVSS
VL: B1 VL with L30F, K36R, D76G, V91F, D97V, S99I, F102L, S106L, I112L, K113R
notes: Full-length IgG from ExpiCHO
B7: Ab 360 (antibody, V domains shown)
VH: VVQLQQSGPELVKPGASVKMSCKASGYTFTSYLMHWVRQKPGLGLDWIGYINPYNDGTNYNAKFIDKATLTSDKTSSTAYMELSSLTSEDSAIYYCTRGDYWGQGTSVTVSS
VL: B1 VL with T12A, K18Q, T59I, E61Q, Q95L, S99G, Y100F, F102L, S106A, I112L
notes: Full-length IgG from ExpiCHO; also called 360-Chim
B8: Ab 400 (antibody, V domains shown)
VH: QVQLKESGPGLVAPSQSLSITCTVSGFSLNSYGVSWVRQPPGKGLEWLGVIWGDGSTNYHSALKSRLNINKDKSKSQVFLKLNSLQTDDTATYYCARPTRGNAMDYWGQGTSVTVSS
VL: B1 VL with I2V, S22N, K36R, N37S, V64A, T75A, V91I, D97N, S99N
notes: Full-length IgG from ExpiCHO
B9: Ab 432 (antibody, V domains shown)
VH: QIQLQQSGAELARPRASVKLSCKASGYTFTSDVISWVKQRPGQGLEWIGESYLRNGNTYYNENFKGKATLTADKSSSTAYMELRSLTSEDSAVYFCARSYYGNSFAYWGQGTLVTVSA
VL: B1 VL with G16R, S22N, S26T, D97A, S99Y, S106G
notes: Full-length IgG from ExpiCHO; also called 432-Chim
B10: Ab 384 (antibody, V domains shown)
VH: B9 VH with I2V, R15G, G26D, D32Y, P41T, S51I, L53P, N63K
VL: B1 VL with K45R, Y93C, D97N, S99Y, S106G, E111G
notes: Full-length IgG from ExpiCHO
B11: Ab 392 (antibody, V domains shown)
VH: EVQLQQSGPELVKPGASVKMSCKASGFTFTSYVMHWVKQKSGQGLEWIGYINPYNDDIKYNAKFEDKATLTSDRSSSTAYMELSSLTSDDSAVYFCTRGDYWGQGTTLTVSS
VL: B1 VL with A15T, S22D, P46S, T59I, E61K, Q95L, Y100F, F102L, S106A, I112L
notes: Full-length IgG from ExpiCHO
B12: Ab 307 (antibody, V domains shown)
VH: B4 VH with T30S, T115A
VL: B1 VL with A15T, T40S, K45I, I54F, S83N, S106A, I112L, K113R
notes: Full-length IgG from ExpiCHO
B13: Ab 376 (antibody, V domains shown)
VH: B4 VH with T30S, E46Y, I52S, I53S, G55V, V100T
VL: B1 VL with D76G, S106A, I112L
notes: Full-length IgG from ExpiCHO
B14: Ab 409 (antibody, V domains shown)
VH: QVQLQQSGAELARPGASVKLSCKASGYTFTSYGISWVKQRTGQGLEWIGEISPRSGNTYYNEKFKGKATLTADKSSSTAYMELRSLTSEDSAVYFCATGVITTVIPTDWYFDVWGTGTTVTVSS
VL: DIQMTQTTSSLSASLGDRVTISCRASQDISNYLNWYQQKPDGTVKLLIYYTSRLHSGVPSRFSGSGSGTDYSLTISNLEPEDIATYYCQHYSKLPPTFGSGTKLEIK
notes: Full-length IgG from ExpiCHO; 38 is used
B15: Ab 416 (antibody, V domains shown)
VH: EFQLQQSGPELVKPGASVKISCKASVYSFTGYNMNWVKQSNGKSLEWIGVINPNYGNTNYNQRFKGKATLTVDQSSSTAYMQLNSLTSEDSAVYYCARSEDYYNIRGASWGQGTLVTVSA
VL: QIVLTQSPAIMSASPGQKVTITCSASSTINYMHWYQQKLGSSPKLWIYDTSKLAPGVPARFSGSGSGTSYSLTISSMEAEDAASYFCHQWSSYPPTFGSGTKLELK
notes: Full-length IgG from ExpiCHO
B16: Ab 301 (antibody, V domains shown)
VH: VVQLQQSGPELVKPGASVKMSCKASGYTFTSFLIHWVRQKPGLGLEWIGYINPYDYGINYNVKFMDKVTLTSDKTSSTAYMELSSLTSADSAIYYCTRGDYWGQGTSVIVSS
VL: DIVMTQSPSSLAVTTGEQVTMNCKSSQSLLNSGNQKNYLTWYQQKTGQSPKLLIYWASTRQSGVPDRFTGSGSGTDFTLTISSVQAEDLAVYYCLNDYGFPLTFGAGTKLELK
notes: Full-length IgG from ExpiCHO

This note sets out measurements from patent US20260104418A1 (published 2026).

Positions count from the first letter of the chain named.

The target of the first experiment is T1, human Claudin-18.2 (CLDN18.2) (human).
T1 construct: On cells: endogenous on HUPT4 and SNU601; also called human CLDN18.2
In words: FACS titration of AF647-labelled IgG on HEK293T cells overexpressing human CLDN18.2 (clone C12).
Source text: (§1) CLDN18.2-expressing cells were used in FACS assays to determine the CLDN18.2 antibody's ability to bind to CLDN18.2 on the surface of cells and to cross-react with other CLDN family members. HEK293 T cells engineered to express human CLDN18.2 fused to GFP, mouse CLDN18.2 fused to GFP, CLDN18.1-GFP, or GFP alone (without CLDN18.2) were used as artificial models of CLDN18.2 expression. HUPT4, SNU601, and PATU8988S cells were used as endogenous models of CLDN18.2 expression.
(§2) For each type of cell tested and for each mAb, cells were detached from the surface of the culture flasks by versene (instead of trypsin) in order to protect the cell surface proteins. The detached cells were then incubated with Alexa Fluor®-labeled CLDN18.2 mAbs for 30 min in the dark on ice at a pre-determined concentration. […] After washing, the cells were read by a BD Accuri™ Flow Cytometer C6 to detect antibody-antigen protein binding in channel FL4H. Each antibody was tested at varied concentrations to establish a dose-fluorescence curve.
One may read the EC50 as the concentration needed to bring the measured effect to its halfway point. Low values mean higher potency in that assay, high ones lower potency in that assay. The molecule B1 registered an EC50 of 1090 nM.

In turn, B2 came in with a half-maximal effective concentration (EC50) of 70.4 nM.

As for B3, the EC50 came to 1740 nM.

Consider B4, for which the EC50 is 40 nM. This EC50 is about 44-fold lower than that of the molecule before.

Take B5: the response was half-maximal at 23.1 nM (EC50). Compared with the last molecule, the EC50 is about 1.7-fold lower.

B6 showed an EC50 of 54.5 nM.

B7 showed an EC50 of 39.7 nM.

Take B8: the response was half-maximal at 31.2 nM (EC50).

B9 showed an EC50 of 42.3 nM. This EC50 and that of the molecule before are within 1.5-fold of each other.

Molecule B10 registered an EC50 of 595 nM. This EC50 is about 14-fold higher than that of the molecule before.

In turn, B11 showed a 50% effective concentration (EC50) of 446 nM.

The molecule B12 gave a concentration giving a half-maximal response (EC50) of 39.1 nM.

For the molecule B13, the EC50 was found to be 52.1 nM.

As to B14, a half-maximal response (EC50) required 605 nM.

For B15, a half-maximal response (EC50) required 597 nM.

With B16, a half-maximal effect (EC50) was put at 22.1 nM.

Another experiment addresses T1, human Claudin-18.2 (CLDN18.2). In words: FACS titration of AF647-labelled IgG on SNU601 cells (endogenous CLDN18.2).
Source text: as §1, §2
Molecule B2 displayed an EC50 of 276 nM.

B4: a half-maximal effect (EC50) was put at 276 nM.

In turn, B5 came in with an EC50 of 106 nM.

B6 registered an EC50 of 414 nM.

For B7, the EC50 amounted to 119 nM.

In the case of B8, the midpoint of the response, the EC50, lay at 270 nM.

For the molecule B9, the EC50 was 245 nM.

B12 registered an EC50 of 221 nM.

Turning to B16, the half-maximal effective concentration (EC50) worked out at 256 nM. This EC50 and that of the molecule before are within 1.5-fold of each other.

For another experiment the target is unchanged. The experiment is described as follows: FACS titration of AF647-labelled IgG on HUPT4 cells (endogenous CLDN18.2).
Source text: as §1, §2
B2 yielded an EC50 of 294 nM.

B4: the EC50 came out at 265 nM. The EC50 values of the last two molecules are within 1.5-fold of each other.

B5 had an EC50 of 606 nM.

Take B6: the response was half-maximal at 111 nM (EC50).

With B7, it took 693 nM to reach a half-maximal effect (EC50).

Molecule B8 showed an EC50 of 97.8 nM.

Regarding B9, the midpoint of the response, the EC50, lay at 348 nM. This EC50 lies about 3.6-fold higher than the previous one.

With B12, the EC50 amounted to 336 nM.

Turning to B16, the response was half-maximal at 143 nM (EC50). This EC50 is about 2.3-fold lower than that of the molecule before.

A further experiment shares this target. In words: FACS, 1.5 ug antibody, HUPT4 cells (endogenous CLDN18.2).
Procedure: (§3) FAGS assays were carried out to determine relative antigen binding strengths of the humanized antibodies (at either 1.5 ag or 0.3 rag) for binding to CLDN18.2 as expressed by the indicated cancer cell lines.
Take B1: the “FACS signal (relative antigen binding strength)” value is 2450.

B3: the “FACS signal (relative antigen binding strength)” value came out at 11100.

For the molecule B13, the “FACS signal (relative antigen binding strength)” value turned out to be 31300.

The target is the same in another experiment. The experiment is described as follows: FACS, 1.5 ug antibody, HEK293T-CLDN18.2 C12 clone. A general note: Flow cytometry measures light scatter and fluorescence of single cells or particles in a stream.
Procedure: as §3
Consider B1, for which the “FACS signal (relative antigen binding strength)” value stood at 80600.

Take B3: the “FACS signal (relative antigen binding strength)” value amounted to 125000.

In the case of B13, the “FACS signal (relative antigen binding strength)” value stood at 137000.
